Source: the MegaScale stability set (Tsuboyama et al. 2023)

B1: 1ZHC (parent)
chain: HEFRDEISVLKANNPHFDKIFEKHNQLDDDIKTAEQQNASDAEVSHMKKQKLKLKDEIHSMIIEYREK

Variants of: B1
Experiment: folding stability dG (cDNA display proteolysis); higher = more stable
Details: PBS, room temperature

Row | Variant | folding stability dG [kcal/mol]
1 | HEFRDEISVLKANNPHFDKIFEKHNQLDDDDKTAEQQNASDAEVSHMKKQKLKLKDEIHSMIIEYREK | -0.93
2 | HEFRDEISVLKANNPHFDKIFEKHNQLDDDHKTAEQQNASDAEVSHMKKQKLKLKDEIHSMIIEYREK | -0.743
3 | HEFRDEISVLKANNPHFDKIFEKHNQLDDDNKTAEQQNASDAEVSHMKKQKLKLKDEIHSMIIEYREK | -0.499
4 | HEFRDEISVLKANNPHFDKIFEKHNQLDDDCKTAEQQNASDAEVSHMKKQKLKLKDEIHSMIIEYREK | -0.874
5 | HEFRDEISVLKANNPHFDKIFEKHNQLDDDLKTAEQQNASDAEVSHMKKQKLKLKDEIHSMIIEYREK | -0.093
6 | HEFRDEISVLKANNPHFDKIFEKHNQLDSDIKTAEQQNASDAEVSHMKKQKLKLKDEIHSMIIEYREK | 1.2
7 | HEFRDEISVLKANNPHFDKIFEKHNQLDGDIKTAEQQNASDAEVSHMKKQKLKLKDEIHSMIIEYREK | 0.771
8 | HEFRDEISVLKANNPHFDKIFEKHNQLDMDIKTAEQQNASDAEVSHMKKQKLKLKDEIHSMIIEYREK | 1.5
9 | HEFRDEISVLKANNPHFDKIFEKHNQLDADIKTAEQQNASDAEVSHMKKQKLKLKDEIHSMIIEYREK | 1.44
10 | HEFRDEISVLKANNPHFDKIFEKHNQLDNDIKTAEQQNASDAEVSHMKKQKLKLKDEIHSMIIEYREK | 1.49
11 | HEFRDEISVLKANNPHFDKIFEKHNQLDWDIKTAEQQNASDAEVSHMKKQKLKLKDEIHSMIIEYREK | 1.26
12 | HEFRDEISVLKANNPHFDKIFEKHNQLDHDIKTAEQQNASDAEVSHMKKQKLKLKDEIHSMIIEYREK | 1.51
13 | HEFRDEISVLKANNPHFDKIFEKHNQLDLDIKTAEQQNASDAEVSHMKKQKLKLKDEIHSMIIEYREK | 1.56
14 | HEFRDEISVLKANNPHFDKIFEKHNQLDYDIKTAEQQNASDAEVSHMKKQKLKLKDEIHSMIIEYREK | 1.25
15 | HEFRDEISVLKANNPHFDKIFEKHNQLDRDIKTAEQQNASDAEVSHMKKQKLKLKDEIHSMIIEYREK | 1.67
16 | HEFRDEISVLKANNPHFDKIFEKHNQLDKDIKTAEQQNASDAEVSHMKKQKLKLKDEIHSMIIEYREK | 1.79
17 | HEFRDEISVLKANNPHFDKIFEKHNQLDTDIKTAEQQNASDAEVSHMKKQKLKLKDEIHSMIIEYREK | 0.539
18 | HEFRDEISVLKANNPHFDKIFEKHNQLDIDIKTAEQQNASDAEVSHMKKQKLKLKDEIHSMIIEYREK | 1.44
19 | HEFRDEISVLKANNPHFDKIFEKHNQLDQDIKTAEQQNASDAEVSHMKKQKLKLKDEIHSMIIEYREK | 1.5
20 | HEFRDEISVLKANNPHFDKIFEKHNQLDEDIKTAEQQNASDAEVSHMKKQKLKLKDEIHSMIIEYREK | 1.24

Row | Variant | folding stability dG [kcal/mol]
21 | HEFRDEISVLKANNPHFDKIFEKHNQLDCDIKTAEQQNASDAEVSHMKKQKLKLKDEIHSMIIEYREK | 1.17
22 | HEFRDEISVLKANNPHFDKIFEKHNQLDVDIKTAEQQNASDAEVSHMKKQKLKLKDEIHSMIIEYREK | 1.24
23 | HEFRDEISVLKANNPHFDKIFEKHNQLDFDIKTAEQQNASDAEVSHMKKQKLKLKDEIHSMIIEYREK | 1.38
24 | HEFRDEISVLKANNPHFDKIFEKHNQLDDRIKTAEQQNASDAEVSHMKKQKLKLKDEIHSMIIEYREK | 1.07
25 | HEFRDEISVLKANNPHFDKIFEKHNQLDDCIKTAEQQNASDAEVSHMKKQKLKLKDEIHSMIIEYREK | 1.21
26 | HEFRDEISVLKANNPHFDKIFEKHNQLDDGIKTAEQQNASDAEVSHMKKQKLKLKDEIHSMIIEYREK | -0.099
27 | HEFRDEISVLKANNPHFDKIFEKHNQLDDKIKTAEQQNASDAEVSHMKKQKLKLKDEIHSMIIEYREK | 1
28 | HEFRDEISVLKANNPHFDKIFEKHNQLDDQIKTAEQQNASDAEVSHMKKQKLKLKDEIHSMIIEYREK | 1.25
29 | HEFRDEISVLKANNPHFDKIFEKHNQLDDSIKTAEQQNASDAEVSHMKKQKLKLKDEIHSMIIEYREK | 0.524
30 | HEFRDEISVLKANNPHFDKIFEKHNQLDDLIKTAEQQNASDAEVSHMKKQKLKLKDEIHSMIIEYREK | 1.27
31 | HEFRDEISVLKANNPHFDKIFEKHNQLDDMIKTAEQQNASDAEVSHMKKQKLKLKDEIHSMIIEYREK | 1.66
32 | HEFRDEISVLKANNPHFDKIFEKHNQLDDAIKTAEQQNASDAEVSHMKKQKLKLKDEIHSMIIEYREK | 1.4
33 | HEFRDEISVLKANNPHFDKIFEKHNQLDDIIKTAEQQNASDAEVSHMKKQKLKLKDEIHSMIIEYREK | 0.712
34 | HEFRDEISVLKANNPHFDKIFEKHNQLDDVIKTAEQQNASDAEVSHMKKQKLKLKDEIHSMIIEYREK | -0.277
35 | HEFRDEISVLKANNPHFDKIFEKHNQLDDNIKTAEQQNASDAEVSHMKKQKLKLKDEIHSMIIEYREK | 0.359
36 | HEFRDEISVLKANNPHFDKIFEKHNQLDDTIKTAEQQNASDAEVSHMKKQKLKLKDEIHSMIIEYREK | 0.396
37 | HEFRDEISVLKANNPHFDKIFEKHNQLDDYIKTAEQQNASDAEVSHMKKQKLKLKDEIHSMIIEYREK | 0.857
38 | HEFRDEISVLKANNPHFDKIFEKHNQLDDEIKTAEQQNASDAEVSHMKKQKLKLKDEIHSMIIEYREK | 0.784
39 | HEFRDEISVLKANNPHFDKIFEKHNQLDDWIKTAEQQNASDAEVSHMKKQKLKLKDEIHSMIIEYREK | 1.09
40 | HEFRDEISVLKANNPHFDKIFEKHNQLDDFIKTAEQQNASDAEVSHMKKQKLKLKDEIHSMIIEYREK | 0.817
